According to the nanobody polyreactivity screen of Harvey et al. (2022):

Assay: yeast display, Sf9 membrane polyspecificity reagent, FACS + sequencing; frameworks hold sequencing errors
Outline: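 Galactose induction of a Saccharomyces cerevisiae BJ5465 synthetic nanobody display library ran 36–48 hours. The cells were then stained for 1 hour at 4 °C with 10% biotinylated, detergent-solubilized Sf9 membrane reagent, pulled down on streptavidin microbeads and FACS-sorted into low and high (top ~1%) gates on expression and reagent-binding fluorescence. Labels for polyreactivity follow the gate of origin.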

| Sequence | polyreactivity (PSR sort gate) |
| --- | --- |
| QVQLVESGGGLVQAGGSLRLSCAASGSIFPQYAMGWYRQAPGKERELVASITDSGGRTYYADSVKGRFTISRDNAKNTVYLQMHSLKPEDTAVYYCAAVSLWWSDYYFVEYDYWGQGTQVTVSS | high polyreactivity |
| QVQLVESGGGLVQAGGSLRLSCAASGSTFALNAMGWYRQAPGKERELVAAIDDSGITYYADSVKGRFTISRDNAKNTVYLQMNSLKPDDTAVYYCAKKEWKSRTHAKGDQYPDDYWGQGTQVTVSS | low polyreactivity |
| QVQLVESGGGLVQAGGSLRLSCAASGSTFPPNAMGWYRQAPGKERELVAGINGSGGRTYYADSVKGRFTISRDNAKNTVYLQLNCMKPEDTAVYYCAAEGTTIWFDLTYDDWYEYYSWGQGTQVTVSS | high polyreactivity |
| QVQLVESGGGLVQAGGSLRLSCAASGRIFDSYAMGWYRQAPGKERELVASITCSGGSTYADSVKGRFTSSRDNAKNTVYLQMNSLKPEDTAVYYFDYWGQGTQVTVSS | low polyreactivity |
| QVQLVESGGGLVQAGGSLRLSCAASGSIFRTYAMGWYIQAPGKERELVAAIRRSGGRTYYADSVKGRFTISRDNAKNTVYLQMNSLKPEDTAVYYCNKRVSKQSKYDYWGQGTQVTVSS | high polyreactivity |
| QVQLVESGGGLVQAGGSLRLRCAASGIIIYDYAMGWYRQAPGKERELVAAISSTAVGTYYADSVKGRFTISRDNAKNTVYLQMNSLKPVDTAVYYCAAAVSPHSEGFGEYNYWGQGTQVTVSS | low polyreactivity |
| QVQLVESGGGLVQAGGSLRLSCAASGSIFYEYAMGWYRQAPGKEREFVASISWSGGITYYADSVKGRFTISRDNAKNTVYLQMNSLKPEDTAVYYCAADFSWYLYDYDYWGQGTQVTVSA | low polyreactivity |
| QVQLVESGGGLVQAGGSLRLSCAASGFIFRGYAMGWYRQAPGKERELVAAISTGGGRTYYADSVKGRFTISRDNAKNTVYLQMNSLKPEDTAVYYCNRRSYTQVLMDYWGQGTQVTVSS | high polyreactivity |
| QVQLVESGGGLVQAGGILRLICAASGRIFGPYAMGWYRQAPGKERELVADITGGGTYYADSVKGRFTISRDNAKNTVYLQMFSLKPEDTSVYYCAADYSSYTSFRYDYWGQGTHVTVSS | low polyreactivity |
| QVQLVESVGRLVQAGGSLRLSCAASGIIFSVNAMGWYRQAPGKERELVAAITYSGGSTYYADSVKGRFTISRDNAKNTVYLQMNSLKPEDTAVYYCATSYYSSGTWSEYYYWCQGTQVTVSS | high polyreactivity |
| QVQLVESGGGLVQAGGSLRLSCAASGFTFPKYAMGWYRQSPGKERELVAGITNGGSTFYADSVKGRFTISRDNAKNTVYLQMNSLKPEDPAVYYCAASGRLSLGGRFYDLGLSYDYWGQGTQVTVSS | low polyreactivity |
| QVQLVESGGCLVQAGGSLRLSCVASGRTFRRYAMGWYRQAPGKERELLSTITLNGGSTYYADSVKGRFTISRDNATNTVDLQMNSLKPEDTAVYDCKRCTNVVRRGVYSFGYDYWGEGTQVTVSS | low polyreactivity |
| QVQIVDSGGGLVQAGGSLSLSCAASGSTIYRYAMGWYRQAPGKERELVAAITSAGSTNYADSVKGRFTISRDNAKNTVYLQMNSLKPEDTAVYYCAADHGRPYFSYDYWGQGTQVTVSS | low polyreactivity |
| QVQLVESGGGLVQAGGSLRLSCAASGSIFTAYAMGWYRQAPGKEMELVAAITYNGGSTYYADSVKGRFTISRDNAKNTVYLQMNSLKPEDTAVYYCAARYWFYYDLYDYWGQGTQVTVSS | low polyreactivity |
| QVHLVESGGGLVQAGGSLRLSCAASGITFRFNAMGLSRQAPGKEMEFVAAITYSGDSTYYADSLKVRFTISRDNAKNSVYLHLKSVKPEDTAVYYCAAEYYAISRRIFYYWGQGTQVTVSS | low polyreactivity |
| QVQLVESGGGLVQAGGSLRLSCAASGRIFRRYAMGWYRQAPGKERELVASISSGGSTNYADSVNGRFTISRDNAKNTVYLQMNSLKPEDTAVYYCAASYPSIYYYRYDYWGKGTQVTVSS | high polyreactivity |
| QVQLVESCGGLVQAGGSLRLSCAASGSTFAGYVMGWYRQAPGKERQFVAAISTSGGRTYYADSVKGRFTISRDNAKNTVYLQMNSLKPEDTAVYYCAARSVTYGGLGLYGYWGQGTQVTVSS | high polyreactivity |
| QVQLVESGGGLVQAGGSLRFSSAASGSIFGTYVMGWYRQAPGKERELVAAISWSGGSTYYADSVKGRFTISRDNAKNTVYLQMNSLKPEDTAVYYCAADSIRFEYEYWGQGTQVTVSS | high polyreactivity |
| QVQLVESGGGLVQAGGSLRLSCAASGSTFESYDMGWYRPAPGKERELVAAIDWSGGITYYADSVKGRFTISRDNAKNTVYLQMNSLKPEDTAVYYCNADWFVRYPKRVYWSEYDYWGHGTQVTVSS | low polyreactivity |
| QVQLVESGGGLVQAGGSLRLSFAASGSTFYVYPMGWYRQAPGKERELVAAITDSGGSTYADSVKGRFTISRDNAMNTVYLQFNSLKPEASAVYADSTFYWYYYYWGQGPQVTVSS | low polyreactivity |
| QVQLVESGGGLVQAGGSLRLSCAASGSTFYYNAMGWYRQAPGKERELVARISRSGGSTYADSVKGRFTISRDNAKNTVYLQMNSLKPEDTAVYYCNADAYGTPEFTSYAVRYDYWGQGTQVNVSS | low polyreactivity |
| QVQLVESGGGLVQAGGSLRLSCAASGSTFSANDMGWDRQAPGKEREFVAAITTSDDSTYYADSVKGRYTISRDNAKNTVYLQMNSLKPEDTAVYYCNAYSGYSFFGLCFFYKYDYWGQGTQVTVSS | low polyreactivity |

| Sequence | polyreactivity (PSR sort gate) |
| --- | --- |
| QVQLVESGGGLVQAGGSLRLSCAASGRTFWDYAMGWYRQAPGKERELVAAITGGITNYADSVKGRFTISRDNAKNTVYLQMNSLKPEDTAVYYCAVYYRRWFSRYDYWGQGTQVTVSS | low polyreactivity |
| QVQLVESGGGLVQAGGSLRLSCAASGRTLSWYAMGWYRQAPGKEREFVAAITSSGASTYYADSVKGRFTISRDNAKNTVYLQMNSLKPEDTAVYYCAAKMRGYPRRRYDYCGQGTQVTVSS | high polyreactivity |
| QVQLVESGGGLVQAGGSLRLSCAASGSTFGYAMGWNRQAPGKERELVAAINWSGSRTYYADSVKGRFTISRDNAKNTVYLQMNSLKPEDTAVYYCAVLYAGDSPDFDYWGQGSQVTVSS | high polyreactivity |
| QVQLVESGGGLVQAGGSLRLSCAASGFIFSANAMGWYRQAPGKERELVAAISSRGTSTYYADSVKGRFTISRDYAKNTVYLQMNSLKPEDTGVYFCAADYYQAGTYVWMDYWGQGTQVTVSS | high polyreactivity |
| QVQLVESGGGLVQAGGSLRLSCAASGSTFRTNAMGWYRQAPGKERELVAAITYRAGNTYYADSVKGRFTISRDNAKNTVYLQMNSLKPEDTAVYYCNAESLSFPARGRAYRYYYWGQGTQVTVSS | high polyreactivity |
| QVHLVESGGGLVQAGGSLRLTCAASGFTFSDNAMGWYRQAPGKERELVAAISRSGGRTYYADSVKGRFTISRDNAKKTVYLQMNSLKPEDTAVYYCAAYQYGMDYWGQGTQVTVSS | high polyreactivity |
| QVQLVESGGGLVQAGGSLRLSCAASGLIFRTYAMGWNRQAPGKERELVAAIRGGGSTNYADSVNGRFTISRDNAKNTVYLQMNSLKPEDTAVYYCAALVYAVTRRRVQGYGYDYWGQGTQVTVSS | low polyreactivity |
| QVQLVESGGGLVQAGGSLRLSCAASGRTFSPYDMGWSRQAPGKERELVAAISFSDTITYYADSVKGRFTISRDNAKNTVYLQMNSLKPEDTAVYYCAADAGGYYEWELYDYWGQGTQVTVSS | low polyreactivity |
| QVQLVESGGGLVQAGGSLRLSCAASGSIFRRYAMGWYRQPPGKERELVASISSRGTRTYYADSVKGRFTISRDNAKNTVYLQMNSLKPEDTAVYYCAASYYTPYDYWGQGTQVTVSS | high polyreactivity |
| QVQLVESGGGLVQAGGSLRLSCAASGRIVPYAMGWYRQAPGKERELVARINFNGGSTYYADSVKGRFTISRDNAKNTVYLQMNSLKPEDTAVYDCAARVYRYRYSKYDYWGQGTQVTVSS | high polyreactivity |
| QVQLVESGGGLVQSGGSLRLSCAASGSTFNYYAMGWYRQAPGKERELVAVINKSGGRTNYADSVKGRFTISRDNAKNTVYLQMNSLKPEDTAVYYCNKVTRREGSYGYPSRYEYWGQGTQVTVSS | high polyreactivity |
| QVQLVESGGGLVQAGGSLRLSCAASGFIFWYNAKGWYRQAPGKERELVAAISSGGSTHYADSVKGRFTISRDNAKNTVYLLMNSLKPEDTAVYYCNTDGYHSNRLDDYDYWRQGTQVTVSS | low polyreactivity |
| QVQLVESGGGLVQAGGSLRLSCAASGSIFQQYAMGWYRQAPGKERELVAAISWGDGSTYYADSVKGRFTISRDNAKNTVYLQMNSLKPEDTAVYYCNAYASAPLWSLEDDYWGQGTQVTVSS | low polyreactivity |
| QVQLVQSGGGLFQAGGSLRLSCAPSGSIFDPNALGWYRQAPAKERELVAAISSGGSRKYSDSVKGRFTISRDNAKNTVYLQMNRLIPEDTAVYYCDASPRQGMYYWGQGTQVTVSS | high polyreactivity |
| QDQHVESGGGLVQAGGSLRLSCAASGIIFYDNTMGWYRQAPGKERELVASITWRGGSTYYADSVKGRFTISRDNAKNTVYLQMNSLKPEDTAVYYCNADSSDDYDYWGQGTQVTVSS | low polyreactivity |
| QVQLVESGGGLVQAGGSLRLRCAASGSTFGLYTMGWYSQAPGKERELVASISIVGSTYYADSVKGLFTSSRDNAKNTVYFQMNSLKPVDTAVYYCAADSEIIYTVRNRTYPWIMDYWGQGTQVTVSS | low polyreactivity |
| QVQLVESGGGLVQAGGSLRLSCAASGSIFRYNAMGWYRQAPGKERELVAAITSGDSTYYADSVKGRFTISRDNAKNTVYLQMISLKPEDTAVYYCAADDWRPFDGYYPLKSEREYWGQGTEVTVSS | low polyreactivity |
| QVQLVESGGGLVQAGGSLRLSCAASGRIFGRNAMGWYRQAPGKERELVASITSGGGTNYADSVKGRFTISRDNAKNTVYLQMNCLKPEDTAVYYCAAKRHLEGYSGSIGRYYYWGQGTQVTVSS | low polyreactivity |
| QVQLVESGGGLVQAGGSLRLSCAASGSTLGYYVMGWYRQAPGKERELVAAITGGGSTDYADSVKGRFTISRDNAKNTVYLQMNSLKPEDTAVDYCAAERTRTGQLFCWGPIYEYWGQGTQVTVSS | low polyreactivity |
| QVQLVESGGGLVQAGGSLRLSCAASGSTFVPNDMGWYRQAPGKERELVAAISYSGGSTYYADSVKGRFTISRDNAKNTVYLQMNSLKPEDTAVYYCAAEKYLGELDYWGQGTQVTVSS | low polyreactivity |
| QVQLVESGGGLVQAGGSLRLSCAASGSTFKSYAMGWYRQAPGKERELVAAITHRGSTYYADSVKGRFTISRDNAKNTVYLQMNSLKPEDTAVYYCAASLRAPSLGHYYYWGQGTQVTVSS | high polyreactivity |
